Legend:
[1] = target: fibronectin (UniProt P02751); experiment: SPR; Biacore 3000; fibronectin on a CM5 chip; 0-500 nM untagged OspC variants injected at 10 μl/min, 25°C; 1:1 Langmuir model; KD from the average koff divided by kon of each run
[2] = target: fibronectin (UniProt P02751); experiment: ELISA; wells coated with 10 μg/ml purified fibronectin in 0.05 M Na2CO3 pH 9.0; 0.03125-2 μM GST or GST-tagged OspC variants, 1 hr at ambient temperature; goat anti-GST and HRP-conjugated anti-goat IgG; estimated KD from a fit of OD405

Sequence of fibronectin (P02751 32-2477): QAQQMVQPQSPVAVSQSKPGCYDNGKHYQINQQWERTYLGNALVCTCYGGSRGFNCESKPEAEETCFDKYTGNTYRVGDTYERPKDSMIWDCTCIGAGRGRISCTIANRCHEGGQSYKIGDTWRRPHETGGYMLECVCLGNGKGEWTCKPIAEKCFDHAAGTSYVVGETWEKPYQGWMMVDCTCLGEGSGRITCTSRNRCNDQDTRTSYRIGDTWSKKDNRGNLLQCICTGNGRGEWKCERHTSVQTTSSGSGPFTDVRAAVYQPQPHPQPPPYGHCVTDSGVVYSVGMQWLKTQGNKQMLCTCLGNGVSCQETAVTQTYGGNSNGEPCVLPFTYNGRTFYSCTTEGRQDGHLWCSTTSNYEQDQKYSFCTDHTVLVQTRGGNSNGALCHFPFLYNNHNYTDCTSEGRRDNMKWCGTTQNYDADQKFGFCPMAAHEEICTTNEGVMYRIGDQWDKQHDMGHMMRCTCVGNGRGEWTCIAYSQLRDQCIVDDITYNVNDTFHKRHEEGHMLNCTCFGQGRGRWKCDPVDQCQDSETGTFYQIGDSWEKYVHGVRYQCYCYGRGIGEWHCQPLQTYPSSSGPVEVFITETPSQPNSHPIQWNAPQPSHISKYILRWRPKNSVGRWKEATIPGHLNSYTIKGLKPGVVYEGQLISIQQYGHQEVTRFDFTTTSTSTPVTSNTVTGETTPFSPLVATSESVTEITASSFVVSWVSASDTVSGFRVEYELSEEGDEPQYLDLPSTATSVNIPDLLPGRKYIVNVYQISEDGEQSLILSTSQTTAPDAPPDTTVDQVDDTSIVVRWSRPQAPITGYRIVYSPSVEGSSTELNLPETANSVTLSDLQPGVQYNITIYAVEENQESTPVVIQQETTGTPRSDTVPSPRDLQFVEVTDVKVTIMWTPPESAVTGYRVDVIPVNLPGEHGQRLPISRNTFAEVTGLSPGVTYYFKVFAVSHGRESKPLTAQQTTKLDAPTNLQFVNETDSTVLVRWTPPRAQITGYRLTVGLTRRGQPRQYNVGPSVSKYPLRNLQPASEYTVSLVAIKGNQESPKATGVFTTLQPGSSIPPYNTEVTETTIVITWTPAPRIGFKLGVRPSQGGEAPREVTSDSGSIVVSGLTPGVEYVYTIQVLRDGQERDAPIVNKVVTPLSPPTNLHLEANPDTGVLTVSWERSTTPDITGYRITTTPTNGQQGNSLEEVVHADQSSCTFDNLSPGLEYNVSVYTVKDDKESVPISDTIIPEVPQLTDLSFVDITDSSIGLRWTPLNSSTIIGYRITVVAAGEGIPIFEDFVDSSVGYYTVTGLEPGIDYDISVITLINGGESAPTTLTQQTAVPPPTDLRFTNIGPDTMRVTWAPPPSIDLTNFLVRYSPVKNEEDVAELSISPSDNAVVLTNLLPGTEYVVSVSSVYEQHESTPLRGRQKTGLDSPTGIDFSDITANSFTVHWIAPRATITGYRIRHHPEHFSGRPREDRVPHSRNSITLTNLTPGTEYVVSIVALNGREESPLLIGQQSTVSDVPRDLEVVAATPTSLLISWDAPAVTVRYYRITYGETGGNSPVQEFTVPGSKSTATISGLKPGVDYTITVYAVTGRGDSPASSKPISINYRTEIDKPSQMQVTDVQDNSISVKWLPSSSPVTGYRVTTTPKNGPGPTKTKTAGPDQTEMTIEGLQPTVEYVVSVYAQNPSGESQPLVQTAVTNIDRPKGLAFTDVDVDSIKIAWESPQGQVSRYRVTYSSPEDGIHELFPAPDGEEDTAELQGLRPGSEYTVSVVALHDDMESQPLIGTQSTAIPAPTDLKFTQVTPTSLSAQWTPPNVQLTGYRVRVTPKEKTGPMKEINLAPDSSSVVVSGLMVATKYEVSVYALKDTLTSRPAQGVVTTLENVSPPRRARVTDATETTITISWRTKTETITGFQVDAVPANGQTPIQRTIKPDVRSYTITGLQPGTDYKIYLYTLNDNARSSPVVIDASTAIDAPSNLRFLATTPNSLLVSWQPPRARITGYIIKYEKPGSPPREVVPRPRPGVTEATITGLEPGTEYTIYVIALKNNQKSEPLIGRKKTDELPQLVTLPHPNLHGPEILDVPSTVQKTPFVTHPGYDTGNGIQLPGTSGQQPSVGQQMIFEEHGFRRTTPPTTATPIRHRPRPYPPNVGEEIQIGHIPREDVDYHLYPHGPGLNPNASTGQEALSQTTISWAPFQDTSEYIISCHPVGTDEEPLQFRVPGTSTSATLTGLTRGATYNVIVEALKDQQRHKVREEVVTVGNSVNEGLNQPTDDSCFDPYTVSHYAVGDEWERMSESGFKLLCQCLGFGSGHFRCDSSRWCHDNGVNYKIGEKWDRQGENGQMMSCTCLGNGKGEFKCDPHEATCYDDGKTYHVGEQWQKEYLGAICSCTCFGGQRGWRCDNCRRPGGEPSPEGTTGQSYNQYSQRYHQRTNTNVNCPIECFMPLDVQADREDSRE

Question: How did the Kd [1] turn out when OspC297, untagged (natural protein) was run?
Answer: 1.75 µM

Question: What about the koff [1] of the same substance?
Answer: 0.06 s⁻¹

Question: What about the kon [1] of the same substance?
Answer: 36800 M⁻¹ s⁻¹

Question: “GST-OspC_(N40-D10/E9) (natural protein; other documents disagree on this pair)” was tested. Which Kd [2] did it give?
Answer: 0.35 µM

Source: publication PMC7255614
